These are literature values, as cited in PMC3667669.

Read-outs that look alike come from different tables or passages of the source.

In series [1] the target is Cdc42 (Homo sapiens) (UniProt P60953).
The target is the same in series [2]. The source holds these as a separate data set.

Sequence of Cdc42 (Homo sapiens) (P60953 1-188): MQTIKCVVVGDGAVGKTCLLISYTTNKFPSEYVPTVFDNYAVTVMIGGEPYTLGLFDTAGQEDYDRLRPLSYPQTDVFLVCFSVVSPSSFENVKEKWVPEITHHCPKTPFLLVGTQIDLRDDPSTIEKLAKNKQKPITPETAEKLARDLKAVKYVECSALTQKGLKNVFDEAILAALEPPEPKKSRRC
Sequence of mero221-CBD CBD (P42768 201-321): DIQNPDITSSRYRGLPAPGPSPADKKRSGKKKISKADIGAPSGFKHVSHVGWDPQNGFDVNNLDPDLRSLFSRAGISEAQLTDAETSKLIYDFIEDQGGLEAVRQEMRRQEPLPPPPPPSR
Sequence of CBD fragment CBD (P42768 201-321): as above

For the substance CBD fragment CBD (from UniProt P42768), the Kd in the series with Cdc42 (Homo sapiens) [1] was 77 nM. Regarding mero221-CBD CBD (from UniProt P42768), in the series with Cdc42 (Homo sapiens) [2], the Kd is 150 nM.

A word on the Kd: it is the concentration at which binding is half-saturated.
